Target: Ror2-mCherry (xRor2-mCherry in pCS2+)
Assay: fluorescence cross-correlation spectroscopy (FCCS); plasma membrane of live PAC2 cells expressing GFP-Vangl2 and Ror2-mCherry; untreated control (no Wnt protein added); laser spot scanned across the membrane for 16 s; diffusion with triplet fit

GFP-Vangl2 (meGFP-Vangl2 in pcDNA3.1) (from UniProt Q8UVJ6 1-526) (natural protein)
KD without m3 or m4 (untreated control): > 1100 nM

Source: paper PMC8024337
